# T1: Recombinant human IL-23 receptor (IL-23R) extracellular domain (ECD) protein (human, UniProt Q5VWK5 24-355)
# T1 construct: also called human IL-23R ECD; hu IL-23R ECD
# T1 sequence: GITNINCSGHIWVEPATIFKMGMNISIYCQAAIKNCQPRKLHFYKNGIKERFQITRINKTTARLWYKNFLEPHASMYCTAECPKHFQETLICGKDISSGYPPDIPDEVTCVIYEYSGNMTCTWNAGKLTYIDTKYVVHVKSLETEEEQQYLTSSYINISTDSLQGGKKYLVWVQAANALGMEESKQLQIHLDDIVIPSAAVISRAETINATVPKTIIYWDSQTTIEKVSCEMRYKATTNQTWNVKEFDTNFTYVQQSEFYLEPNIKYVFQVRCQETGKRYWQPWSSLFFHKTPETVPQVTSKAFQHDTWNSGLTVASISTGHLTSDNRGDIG
# T2: rat IL-23R extracellular domain (ECD) protein (rat)
# T2 construct: also called rat IL-23R ECD; F1LX96 amino acids 24-354
# T2 chain: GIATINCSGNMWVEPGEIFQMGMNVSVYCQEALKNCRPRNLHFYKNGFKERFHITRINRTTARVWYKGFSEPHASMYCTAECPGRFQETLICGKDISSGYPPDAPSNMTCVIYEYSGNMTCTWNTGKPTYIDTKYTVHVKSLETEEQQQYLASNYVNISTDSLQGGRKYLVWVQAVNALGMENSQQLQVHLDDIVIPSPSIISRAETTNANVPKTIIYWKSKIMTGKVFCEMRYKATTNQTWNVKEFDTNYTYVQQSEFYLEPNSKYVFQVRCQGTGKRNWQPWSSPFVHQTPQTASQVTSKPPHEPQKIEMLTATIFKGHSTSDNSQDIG
# What was measured:
# [1] = biological target: T1, Recombinant human IL-23 receptor …; assay: SPR Biacore 8K, supernatant, analysis 2
# In short: (§1)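 mAbs captured (~150 RU) on Biacore 8K; human or rat IL-23R ECD injected at 0.8–500 nM (5-fold series) at 25 °C in HBS-P+ with 100 μg/ml BSA. Association 3 min at 50 μL/min, dissociation 30 min. Ka, Kd and KD from Langmuir 1:1 fit.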
# [2] = biological target: T1, Recombinant human IL-23 receptor …; assay: SPR Biacore 8K, supernatant, analysis 1
# In short: as §1
# [3] = biological target: T2, rat IL-23R extracellular domain (ECD) …; assay: SPR Biacore 8K, supernatant
# Experimental: Affinity by SPR using Biacore 8K. Affinity measurements using Surface Plasmon Resonance (SPR) were performed using a Biacore 8K system (Cytiva). […] Approximately 9000-10000 RU (response units) of mAbs were immobilized. The kinetic experiments were performed at 25° C. in running buffer 1× of (HBS-P+ Buffer 10× (Cytiva #BR100671)+100 μg/ml BSA). To perform kinetic experiments, approximately 150 RU of mAbs were captured followed by injections of human IL-23R or rat IL-23R at concentrations ranging from 0.8 nM to 500 nM (in a 5-fold serial dilution). The association phase was monitored for 3 minutes at 50 μL/min, then followed by 30 minutes of buffer flow (dissociation phase). […] The collected data were processed using Biacore insight Evaluation software (Version 3.0.12.15655). The kinetic analysis of the data was performed using a Langmuir 1:1 binding model. The result for each mAb was reported in the format of Ka (On-rate), Kd (Off-rate) and KD (equilibrium dissociation constant).
Binder,Kd [1] [nM],koff [1] [s⁻¹],kon [1] [M⁻¹ s⁻¹],Kd [2] [nM],koff [2] [s⁻¹],kon [2] [M⁻¹ s⁻¹],binding result [3],Kd [3] [nM],koff [3] [s⁻¹],kon [3] [M⁻¹ s⁻¹]
"I23RB60 (antibody, mouse IgG2a, kappa, V domains shown, mouse immunization; mouse IgG2a/kappa) VH: DVQLQESGPELVKPGDSVKMSCEASGYTFTDYYIDWVKQSHGKSLEWIGYIYPNNGGISFNQKFEGKATLTVDKSSSTAYMELHSLTSEDSAVYYCAREKLRGRDYWGQGTTLTVSS VL: DIVMTQSTSSLSASLGDRVTISCRASQDIRNNLNWYQQKPDGTVKLLIFYSSRLHSGVPSRFSGSGSGTDYSLTISNLEQEDIATYFCQQGHTLPWTFGAGTKLELKR",0.466,0.000169,362000,0.731,0.000218,298000,no binding (tested: 500 nM),–,–,–
"I23RB58 (antibody, mouse IgG2a, kappa, V domains shown, mouse immunization; mouse IgG2a/kappa) VH: EVKLVESGGGLVKPGGSLKLSCAASGFSFIIYTMSWVRQTPEKRLEWVAYITSGGGITYYPDSVKGRFTISRDNARNTLYLQMSSLRSEDTAMYYCARHEGDYYDDYYRIGYAMDYWGQGTSVTVSS VL: DIVMTQTPASLAVSLGQRATISCRASESVDSYGNSFMHWYQQKPGQPPKLLIYRASNLESGIPARFSGSGSRTDFTLTINPVEADDVATYYCQQSNEDPLTFGAGTKLEMKR",22.5,0.00523,233000,16.2,0.00532,328000,no binding (tested: 500 nM),–,–,–
"I23RB56 (antibody, mouse IgG2a, kappa, V domains shown, mouse immunization; mouse IgG2a/kappa) VH: EVKLVESGGGLVKPGGSLKLSCAASGFTFSSYAMSWVRQTPEKRLEWVAAINSNDGSTYYPDTVKDRFTISRDNAKNTLYLQMSSLRSEDTALYYCARHFLYFSNFYYFDYWGQGTTLTVSS VL: DIVMTQSPKFLLVSAGDRVTITCKASQSVSNDVAWYQQKPGQSPKLLIYYASNRYTGVPDRFTGSGYGTVFTFTISTVQAEDLAVYFCQQDYSSPFTFGSGTKLEIKR",25.5,0.00898,352000,68.4,0.0115,168000,–,715,0.0642,89700
"I23RB39 (antibody, mouse IgG2a, kappa, V domains shown, mouse immunization; mouse IgG2a/kappa) VH: EVQLQQSGPELVKPGAPVKISCKASGYTFTNYYIHWVKQRPGQGLEWIGYIYPGNGGTAYNQKFKDKATLTADNPSSTAYMQLSSLTSEDSAVYFCARSRGGSRNYFDYWGQGTTLTVSS VL: DIQMTQSHKFMSTSVGDRVSITCKASQDVSTAVAWYQQKPGQSPKLLIYSAFYRYTGVPDRFTGSGSGTDFTFTISSVQAEDLAVYYCQQHYSSPRTFGAGTKLELKR",14.9,0.00716,482000,32,0.00739,231000,no binding (tested: 500 nM),–,–,–
"I23RB36 (antibody, mouse IgG2a, kappa, V domains shown, mouse immunization; mouse IgG2a/kappa) VH: QIQLVQSGAELVKPGASVKLSCTTSGFNIKDTYIHWMKQRPEQGLEWIGRIDPANGNTIYASKFQGKATLTTDTSSNTAYMLLSSLTSGDTAVYYCTRGTSWFAYWGQGTTVTVSS VL: DIVMTQSPKSMSMSVGERVTLSCKASENVGTSVSWFQQKPEQSPKLLIYGASNRYTGVPDRFTGSGSATDFTLTISSVQAEDLADYHCGQSYSYPRTFGGGTKLEIKR",2.18,0.00129,592000,13.7,0.00118,86400,no binding (tested: 500 nM),–,–,–
"I23RB30 (antibody, mouse IgG2a, kappa, V domains shown, mouse immunization; mouse IgG2a/kappa) VH: not shown VL: DIVLTQSQRFMSTSVGDRVSITCKASQNIRTAVAWYQQKPGQSPKALIYLPSNRHTGVPDRFTGSGSGTDFTLTISNVQSEDLADYFCLQHWNYPLTFGAGTKLELKR",35.9,0.00763,212000,46.2,0.0101,220000,–,306,0.00909,29800
"I23RB27 (antibody, mouse IgG2a, kappa, V domains shown, mouse immunization; mouse IgG2a/kappa) VH: QVQLKESGPDLVQPSQTLSLTCTVSGFSLTSYGVHWVRQPPGKGLEWVGTLGWDDKKSYNSALKSRLSISRDTSKSQVFLKLSSLQTEDTAMYYCTKEDVSYAMDFWGQGTTLTVSS VL: DIQMTQSPTSLAVSLGQRATISCRASESVEYYGTSLMHWYQQKPGQPPKLLIYAASNVESGVPARFSGSGSGTDFSLNIHPVEEEDIAMYFCQQGKKVPWTFGAGTKLEMKR",18.7,0.00416,223000,11.4,0.00372,325000,no binding (tested: 500 nM),–,–,–
"I23RB188 (antibody, mouse IgG2a, kappa, V domains shown, mouse immunization; mouse IgG2a/kappa) VH: QIQLVQSGPELKKPGETVKISCKASGYTFTNYGMNWVKQAPGKGLKWMGWINTYTGAPTYADDFKGRFAFSLETSASTAYLQINNFKNEDTATYFCARGNGYPYYYGINYWGQGTSVTVSS VL: DVQMIQSPSSLSASLGERVSLTCRASQEISGNLSWLQQKPDGTIKRLIYAASTLDSGVPKRFSGSRSGSDYSLTISSLESEDFADYYCLQYASYPWTFGAGTRLEIKR",18.9,0.00151,79800,13.3,0.0013,98200,no binding (tested: 500 nM),–,–,–
"I23RB182 (antibody, mouse IgG2a, kappa, V domains shown, mouse immunization; mouse IgG2a/kappa) VH: EVQLQQSGPGLVKPSQSLSLTCSVTGYSITSGYFWNWLRQFPGSKLEWMGFIDNDGSNDYNPSLKNRISITRDTSKNQFFLRLNSVTTEDTATYYCARGRLGFFDSWGPGTTLTVSS VL: DIVMTQSPAIMSASLGEKVTMSCRASSSVNYMYWYQQKSDASPKLWIYYTSNLAPGVPARFSGSGSGNSYSLTISSMEGEDAATYYCQQFTNSPWTFGAGTKLELKR",43.7,0.00394,90200,49.8,0.00194,38900,no binding (tested: 500 nM),–,–,–
"I23RB169 (antibody, mouse IgG2a, kappa, V domains shown, mouse immunization; mouse IgG2a/kappa) VH: QIQLVQSGPELKKPGETVKISCKASGYTFTTVGMQWVQKMPGKGFKWIGWINTHSGEPKYTDDFKGRFAFSLETSASTAYLQISNLKSEDTATYFCARSSALTGAFAYWGQGTLVTVSS VL: DIKMTQSPASLAVSLGQRATISCRASKSVSTSDYSYMHWYQQKPGQPPKLLIYLASNLESGVPARFSGSGSGTDFTLNIHPVEEEDAATYYCQHSRELPRTFGAGTKLELKR",34.8,0.00427,123000,91.3,0.0116,128000,no binding (tested: 500 nM),–,–,–
"I23RB168 (antibody, mouse IgG2a, kappa, V domains shown, mouse immunization; mouse IgG2a/kappa) VH: QIQLVQSGPELVKPGASVKMSCKTSGYTFTDYYINWVKQRPGQGLEWIGWIYPAINNTNYNEKFKGKATLTVDTSSRTAYMQLNSLTSEDSAVYFCAISRKPYFDYWGQGTTLTVSS VL: DIQMTQSSSSFSVSLGDRVTITCKASEDLYNRLAWYQQKPGNAPRLLISGATSLGTGVLSRFSGSGSGKDYTLSITSLQTEDVATYYCQQYWSIPWTFGAGTKLELKR",0.422,0.000155,368000,0.279,0.000118,424000,no binding (tested: 500 nM),–,–,–
"I23RB166 (antibody, mouse IgG2a, kappa, V domains shown, mouse immunization; mouse IgG2a/kappa) VH: DVQLQESGPGLVKPSQTVSLTCTVTGYSITNGNHWWNWIRQVSGSKLEWIGYIRSSGSTDSNPSLKSRISITRDTSKNQLFLQLNSVTAEDIATYYCARERLRLRWSYFDYWGQGTTLTVSS VL: DIVMTQSHKFMSTSVGARVSITCKASQDVSTAVAWYQQKPGQSPKLLIYSASYRYTGVPDRFTGSGSGTDFTFTISSVQAEDLAVYYCQQHYSTPRTFGGGTKLEIKR",44.1,0.00942,214000,43.1,0.0193,447000,no binding (tested: 500 nM),–,–,–

# — US20250179196A1 (Janssen / Centocor, published 2025)
